Data from patent US20220119522A1.

Biological target: mouse TREM2 truncated stalk peptide (aa 149-163) (mouse) (UniProt Q99NH8)
Test: ELISA on biotinylated peptide captured by streptavidin; A450 normalised to isotype control

| fold over background (A450) | Binder |
| --- | --- |
| 1.6 fold | CL0020210 (antibody, V domains shown) VH: QIQLVQSGPELRKPGETVKISCKASGYTFTTYGMSWVKQAPGKGLKWMGWINTYSGLPRHSDDFKGRFAFSLETSASTAYLQINNLKNEDTATYFCAREVYYGSRKTAWFAYWGQGTLVTVSA VL: DLVMSQSPSSLAVSVGERITMTCKSSQSLLYSNDQKNYLAWYQQIPGQSPKLLLYWASTRESGVPDRFTGSGSGTDFTLTISSVKAEDLAVYFCQQYYNYPPTFGAGTKLELK |
| 1.2 fold | CL0020215 (antibody, V domains shown) VH: QVQLQQPGAELVKPGASVKMSCKASGYTFTNYWIMWVKQRPGQGLEWIGDIYPSSGSTNYNEKFKNRATLTVDTSSNTAYMQLSSLTSEDSAVYFCSREGYGISAWGQGTTLTVSS VL: QIVLTQSPAIMSASPGEKVTITCSASSSVSYMHWFQQKPGTSPKLWIYSTSNLASGVPARFSGSGSGTSCSLTISRMEAEDAATYYCQQRSSFPLTFGAGTKLELK |
| 1.5 fold | CL0020111 (antibody, V domains shown) VH: QVQLQQPGADLVKPGASVKMSCKASGYTFTNYWITWVQQRPGQGLEWIGDIYPGSGNTNYNEKFRSKATLTVDTSSNTAYMQLSSLTSEDSAVYYCSREGYGISAWGQGTTLTVSS VL: QIVLTQSPAFMSASPGEKVTITCRASSSVSYMHWFQQKPGTSPKLWIFSTSNLASGVPARFSGSGSGTSHSLTISRMEAEDAATYYCQQRSGYPLTFGAGTKLELK |
| 1.6 fold | CL0020139 (antibody, V domains shown) VH: EVQLQQSGPELVKPGASVKMSCKAPGYSFTSYLMNWVKQKPGQGLEWIGYINPYSAGSNYNEKFKDKATLTSDKSSSTAYMELRSLTSEDSAVYFCARSSYRYGFDYWGQGTTLTVSS VL: DIQMTQSSSSFSVSLGDRVTITCKASEDIYNRLAWYQQKPGNAPRLLISGATSLETGVPSRFSGSGSGKDYTLSITSLQTEDVATYSCQQYWSTPWTFGGGTKLEIK |
| 1.5 fold | CL0020164 (antibody, V domains shown) VH: EVKLLESGGGLVQPGGSLRLSCAASGFTFTDFYMSWIRQPPGKAPEWLGVIRNKANGFTTEYNTSVKGRFTISRDYTQNILHLQTNTLRAEDTAIYYCARLTYGFDYWGQGVMVTVSS VL: DIVMTQGALPNPVPSGESASITCQSSKSLLHSNGKTYLNWYLQRPGQSPQFLIYWMSTRASGVSDRFSGSGSGTDFTLKISSVEAEDVGVYYCQQFLELPFTFGSGTKLEIK |
| 1.2 fold | CL0020195 (antibody, V domains shown) VH: EVQLVESGGGLVQPGRSMMLSCSASGFTFSNYHMAWVRQAPTTGLEWVASITTGSGNTYYRHSVKGRFTISRDNAKSTLYLQMDSLRSEDTASYYCARRWYGGYEGYYFDYWGQGVMVTVSS VL: DIQMTQSPSLLSASVGDRVTLSCKAGQNVNNYLAWYQQKLGEAPKLLIYNANILQTGFPSRFSGTGSGTDFTLTISSLQPEDVATYFCQQYNSWTTFGGGTKLELK |
| 1.7 fold | CL0020109 (antibody, V domains shown) VH: EVQLQQSGPVLVKPGASLKMSCRASGYTFTDYYVHWVKQSHGKSLEWIGLINPYTGTTSYNQRFKGKATLTVDKSSSTAYMEVNSLTSEDSAVYYCARSRVYYGSSLFAFWGQGTLVTVSA VL: DIVMTQSPSSLSVSAGEKVTMSCKSSQSLLNSGNQKNYLAWYQQKPGQPPKLLIYGASTRESGVPDRFTGSGSGTDFTLTISSVQAEDLAVYYCQNDHSYPYTFGGGTKLEIK |
| 1.1 fold | CL0020205 (antibody, V domains shown) VH: EVQLQQSGPVLVKPGASVKMSCKASGYTFTDYYVHWVKQSHGKSLEWIGLINPYTGTTSYNQRFRVKATLTVDKSSSTAYMEVNSLTSEDSAVYYCARSRVYYGSSLFAFWGQGTLVTVSA VL: DIVMTQSPSSLSVSAGEKVTMSCKSSQSLLNSGNQKNYLAWYQQKPGQPPKLLIYGASTRESGVPDRFTGSGSGTDFTLTISSVQAEDLAVYYCQNDHSYPYTFGGGTKLEIK |
| 1.2 fold | CL0020120 (antibody, V domains shown) VH: EVQLQQSGPELVRTGASVKISCRASSYSFTDNYIHWVKQTHGRSLEWIGYISGYTGATSYNQKFKGKATFTVDTSSSTAYMQFNSLTSEDSAVYYCARSTMIAPYGMDYWGQGTSVTVSS VL: DIVMTQSHKFMSTSVGDRVNITCKASQDVVTAVAWYQQKPGQSPKLLIYWASTRHTGVPDRFTGSGSGTDFTLTISNVQSEDLADYFCQQYSRYPLTFGAGTKLELK |
| 1.2 fold | CL0020127 (antibody, V domains shown) VH: EVQLQQSGPVLVKPGASVKMSCKASGYKFTDYYMNWVKQSHGKSLEWIGTINPYSGGISYNQKFKGKATLTVDKSSSTAYMELNSLTSEASAVYYCTRRNWDGRYAMDYWGQGTSVTVSS VL: DIVMTQSHKFMSTSVGDRVSITCKASQDVSTAVAWYQQKPGQSPKLLIYWASTRHTGVPDRFTGSGSGTDFTLTISNVQSEDLAEYFCQQYSSYPFTFGGGTKLEIK |
| 1.6 fold | CL0020206 (antibody, V domains shown) VH: EVQLQQSGPVLVKPGASVKMSCKASGYTFTDYYMNWVKQSHGKSLEWIGIINPYSGGISYNQKFKGKAILTVDKSSSTAYMELNSLTSEASAVYYCTRRNWDGRYAMDYWGQGTSVTVSS VL: DIVMTQSHKFMSTSVGDRVSITYKASQDVGSAVAWYQQKPGQSPKLLIYWTSTRHTGVPDRFTGSGSGTDFTLTISNVQSEDLADYFCQQYSSYPFTFGGGTKLEIK |
| 1.8 fold | CL0020201 (antibody, V domains shown) VH: EVQLQQSGPVLVKPGASVRMSCKPSGYTFTDYYMNWVKQSHGKSLEWIGSINPYTGGSSYNQNFRGKATLTVDKSSSTAYMELNSLTSEDSAVYYCARGSYYSNLGFAYWGQGTLVTVSA VL: DVQLTQSPSFLTASPGETITINCRASKSISKYLAWYQEKPGKTNKLLISSGSTLQSGIPSRFSGSGSGTDFTLTISSLEPEDFAMYYCQQYSEYPFTFGSGTKLEIK |
| 1.4 fold | CL0020162 (antibody, V domains shown) VH: QIQLVQSGPELKKPGESLKISCKASGYTFTDYAMQWVKQAPEKGLQYMGWINTQTGKPTYADDFKERFVFSLETSATTAYLQINNLKNEDMATYFCVRSYNNYENWFAYWGQGTLVTVSS VL: DIVMTQSPSSLAVSAGETVTINCKSSQSLLYSGNQKNYLAWYQQKPGQSPKVLIYWASTRQFGVPDRFIGSGSGTDFTLTISSVQAEDLAIYYCQQYYNSPITFGSGTKLEIK |
| 1.3 fold | CL0020113 (antibody, V domains shown) VH: QIQLVQSGPELKKPGESLKISCKASGYTFTDYAMQWVKQAPGKGLQYMGWINTQTGKPTYADDFKERFVFSLETSASTAYLKINNLKNDDMATYLCARSYGGEYNWIAYWGQGTLVTVSS VL: DIVMTQTPSSQAVSAGEKVTMNCKSSQSLLYNENKKNYLAWYQQKPGQSPKLLIYWASTRESGVPDRFIGSGSGTDFTLTISSVQAEDLAVYYCQQSYNFPPTFGGGTKLELK |
| 0.9 fold | CL0020123 (antibody, V domains shown) VH: EVQLQQSGAELVRSGASVKLSCTASGFSIEDFYIHWVKQRPEQGLEWIGWIDPENGDSKYAPKFQGKATMTADTSSNTAYLHLSSLTSEDTAVYYCHADHGNYGSTMDYWGQGTSVTVSS VL: DIQMNQSPSSLSASLGDTVTITCHASQHINVWLSWYQQKPGDHPKLLIYKASNLHTGVPSRFSGSGSGTGFTLTISSLQPEDIATYYCQQGQTYPRTFGGGTKLEIK |
| 1.3 fold | CL0020214 (antibody, V domains shown) VH: QVRLQQSGAELVRPGSSVKLSCKASGYAFSSYWMNWVKQRPGQGLEWIGQIYPGDGDTNYNGNFKGKATLTADNSSSTAYMQLSSLTSEDSAVYFCARRRNGDFGDYAMDYWGQGTSVTVSS VL: QIVLTQSPAIMSASPGEKVTISCSASSSVSYMCWYQQKPGSSPKPWIYRTSTLASGVPARFSGSGSGTSYSLTISSMEAADAATYYCQHYHSYPFTFGAGTKLELK |
| 1.1 fold | CL0020161 (antibody, V domains shown) VH: EVQLVESGGGLVQPGRSMKLSCAALGFTFSNYYMAWVRQAPRKGLEWVASISTGGDNTYYRDSVKGRFTISRDNAKSTLYMQMDSLRSEDTATYYCVRSFIVGTTGYYFDYWGQGVMVTVSS VL: DIVLTQSPALAVSLGQRATISCKTNQNVDYYGNNYMHWYQQTPGQQPKLLIYFASNLASGIPARFSGRGSGTDFTLTIDPVEADDTATYYCQQSRNLPTFGGGTKLELK |
| 1.1 fold | CL0020313 (antibody, V domains shown) VH: QVQLKQSGPGLLQPSQSLSITCTVSGFSLTSYGVHWVRQSPGKGLEWLGVIWSGGITLYNAAFMSRLSITKDNSKSQVFFKMNSLQADDTAIYYCAKVGYGSSSDYWGQGTTLTVSS VL: DVLMTQSPLSLPVSLGDQASFSCRSSQSIVHSNGNTYLEWYLQKPGQSPKLLIYKVSNRFSGVPDRFSGSGSGTDFTLKISRVEAEDLGVYYCFQGSHVPFTFGSGTKLEIK |
| 1.2 fold | CL0020173 (antibody, V domains shown) VH: EVKLLESGGGLVQPGSSMRLSCAASGFTFTDFYMNWIRQPAGRAPEWLGFFRNIVDGYTTEYNPSVKGRFTISRDNTQNMLYLQMNTLRAEDTATYYCARSGYSSYIYGGTFAYWGQGTLVTVSS VL: ETVMTQSPTSMSTSIGERVTLNCKASQSVGIHVDWYQQTPGQSPKLLIYGASNRHTGVPDRFTGSGFGRDFTLTISNVEAEDLAVYYCLQYGSIPWTFGGGTKLELK |
| 1.8 fold | CL0020103 (antibody, V domains shown) VH: EVQLQQSGPELVKPGASVKISCKTSGYTFTEYTMHWVKESHGKSLEWIGGINPNKGGSSYNQKFKGKATLTVDKSSSTAYMDLRRLTSEDSAVYYCARGGYEYYALDYWGQGTSVTVSS VL: DIVMSQSPSSLTVSVGERVTMSCKSSQSLLYSRNQKNYLAWYQQKPGQSPKLLIYWASTRESGVPDRFTGSGSGTDFSLTISSVKAEDLAVYYCQQYYSYPPTFGGGTKLEIK |
| 1.3 fold | CL0020186 (antibody, V domains shown) VH: EVQLVESGGGLVQPGRSLKLSCPASGFTFSYYGMAWVRQAPTKGLEWVASISTGGGNTYYRDSVKGRFTISRDNAKNTLYLQMDSLRSEDTATYYCARGDIGTAYWFTYWGQGTLVTVSS VL: NIQLTQSPSLLSASVGDRVTLSCKGSQNINNYLAWYQQKLGEAPKLLIYKTNSLLTGIPSRFSGSGSGTDYTLTISSLHSEDLATYYCYQYNNGWTFGGGTKLELK |
